B1: target 1 insC 3' of 20,insA 3' of 6 (mixed)
RNA 1: CACCCGUGCAAAAAUGCAGGGGUCUAAAACUGAGCGGAUAACCUCUCUAUGG
RNA 2: GGGAAUGGAUCCACAUCUACGAAUUCGUACCACUAGAGAGGUUAUCCAGCUCACCGAGAUCGGAAGAGCACACGU
B2: target 1 insG 3' of 9,insU 3' of 7 (mixed)
RNA 1: B1 RNA 1
RNA 2: GGGAAUGGAUCCACAUCUACGAAUUCGUACCAUAGAGAGGUUAGUCUCGCUCACCGAGAUCGGAAGAGCACACGU
B3: target 1 U11A,C22U (mixed)
RNA 1: B1 RNA 1
RNA 2: GGGAAUGGAUCCACAUCUACGAAUUCGUAUCAUAGAGAGGAUAUCCGCUCACCGAGAUCGGAAGAGCACACGU
B4: target 1 insG 3' of 22,insA 3' of 17 (mixed)
RNA 1: B1 RNA 1
RNA 2: GGGAAUGGAUCCACAUCUACGAAUUCGUACGCAUAGAAGAGGUUAUCCGCUCACCGAGAUCGGAAGAGCACACGU
B5: target 1 C6A,U10A (mixed)
RNA 1: B1 RNA 1
RNA 2: B3 RNA 2 with U30C, A41U, U42A, C46A
B6: target 1 insC 3' of 14,insA 3' of 4 (mixed)
RNA 1: B1 RNA 1
RNA 2: B2 RNA 2 with G39C, U41G, A43U, G44A, U47C, C48G, G49C, C50A
B7: target 1 insU 3' of 21,insA 3' of 4 (mixed)
RNA 1: B1 RNA 1
RNA 2: B1 RNA 2 with A32U, C33A, A48G, G49C, C50A
B8: target 1 C4G,U10C (mixed)
RNA 1: B1 RNA 1
RNA 2: B3 RNA 2 with U30C, A41U, U42C, C48G
B9: target 1 U19A,A20G (mixed)
RNA 1: B1 RNA 1
RNA 2: B3 RNA 2 with U30C, A32G, U33A, A41U
B10: target 1 insA 3' of 22,insU 3' of 22 (mixed)
RNA 1: B1 RNA 1
RNA 2: B4 RNA 2 with G31A, C32U, A33C, U34A, A35U, G36A, A37G
B11: target 1 A1C,G5A (mixed)
RNA 1: B1 RNA 1
RNA 2: B3 RNA 2 with U30C, A41U, G47A, A51C
B12: target 1 U19C,A20G (mixed)
RNA 1: B1 RNA 1
RNA 2: B3 RNA 2 with U30C, A32G, U33C, A41U
B13: target 1 G15U,G17U (mixed)
RNA 1: B1 RNA 1
RNA 2: B3 RNA 2 with U30C, G35U, G37U, A41U
B14: target 1 insG 3' of 18,insA 3' of 6 (mixed)
RNA 1: B1 RNA 1
RNA 2: B1 RNA 2 with C33U, U34A, A35G
B15: target 1 G17U,A20G (mixed)
RNA 1: B1 RNA 1
RNA 2: B3 RNA 2 with U30C, A32G, G35U, A41U
B16: target 1 G5A (mixed)
RNA 1: B1 RNA 1
RNA 2: B3 RNA 2 with U30C, A41U, G47A
B17: target 1 complement block 2-10 (mixed)
RNA 1: B1 RNA 1
RNA 2: GGGAAUGGAUCCACAUCUACGAAUUCGUACCAUAGAGAGGUAUAGGCGAGACCGAGAUCGGAAGAGCACACGU
B18: target 1 insC 3' of 15,insU 3' of 7 (mixed)
RNA 1: B1 RNA 1
RNA 2: B2 RNA 2 with A38C, G39A, U41G, A43U, G44A
B19: target 1 insG 3' of 9,insC 3' of 8 (mixed)
RNA 1: B1 RNA 1
RNA 2: B2 RNA 2 with U47C
B20: target 1 C7A,A20G (mixed)
RNA 1: B1 RNA 1
RNA 2: B3 RNA 2 with U30C, A32G, A41U, C45A
B21: target 1 G13A,A16U (mixed)
RNA 1: B1 RNA 1
RNA 2: B3 RNA 2 with U30C, A36U, G39A, A41U
B22: target 1 del16 (mixed)
RNA 1: B1 RNA 1
RNA 2: GGGAAUGGAUCCACAUCUACGAAUUCGUACCAUAGGAGGUUAUCCGCUCACCGAGAUCGGAAGAGCACACGU
B23: target 1 complement block 1-10 (mixed)
RNA 1: B1 RNA 1
RNA 2: B17 RNA 2 with A51U
B24: target 1 U8G,G15A (mixed)
RNA 1: B1 RNA 1
RNA 2: B3 RNA 2 with U30C, G37A, A41U, U44G
B25: target 1 G15U,A16C (mixed)
RNA 1: B1 RNA 1
RNA 2: B3 RNA 2 with U30C, A36C, G37U, A41U
B26: target 1 insG 3' of 6,insG 3' of 2 (mixed)
RNA 1: B1 RNA 1
RNA 2: B2 RNA 2 with G44U, U45C, U47G, C48G, G49C, C50U, U51C, C52G
B27: target 1 insC 3' of 13,insU 3' of 6 (mixed)
RNA 1: B1 RNA 1
RNA 2: B2 RNA 2 with G40C, U41G, A43U, G44A, U47C, C48U
B28: target 1 U8G,A14C (mixed)
RNA 1: B1 RNA 1
RNA 2: B3 RNA 2 with U30C, A38C, A41U, U44G
B29: target 1 G12C,A14C (mixed)
RNA 1: B1 RNA 1
RNA 2: B3 RNA 2 with U30C, A38C, G40C, A41U
B30: target 1 U10A,G15A (mixed)
RNA 1: B1 RNA 1
RNA 2: B3 RNA 2 with U30C, G37A, A41U, U42A
B31: target 1 insA 3' of 21,insU 3' of 1 (mixed)
RNA 1: B1 RNA 1
RNA 2: B1 RNA 2 with C33A, A48G, G49C, C50U, U51C, C52A, A53U
B32: target 1 C6A,U10C (mixed)
RNA 1: B1 RNA 1
RNA 2: B3 RNA 2 with U30C, A41U, U42C, C46A
B33: target 1 G13A,A18U (mixed)
RNA 1: B1 RNA 1
RNA 2: B3 RNA 2 with U30C, A34U, G39A, A41U

Changes are numbered by the printed parent chain. In names and notes the source's numbering stands.

For this data set, the target named is T1, EsCas13d, nuclease-dead (Eubacterium siraeum, UniProt B0MS50, R295A;H300A;R849A;H854A).
T1 sequence: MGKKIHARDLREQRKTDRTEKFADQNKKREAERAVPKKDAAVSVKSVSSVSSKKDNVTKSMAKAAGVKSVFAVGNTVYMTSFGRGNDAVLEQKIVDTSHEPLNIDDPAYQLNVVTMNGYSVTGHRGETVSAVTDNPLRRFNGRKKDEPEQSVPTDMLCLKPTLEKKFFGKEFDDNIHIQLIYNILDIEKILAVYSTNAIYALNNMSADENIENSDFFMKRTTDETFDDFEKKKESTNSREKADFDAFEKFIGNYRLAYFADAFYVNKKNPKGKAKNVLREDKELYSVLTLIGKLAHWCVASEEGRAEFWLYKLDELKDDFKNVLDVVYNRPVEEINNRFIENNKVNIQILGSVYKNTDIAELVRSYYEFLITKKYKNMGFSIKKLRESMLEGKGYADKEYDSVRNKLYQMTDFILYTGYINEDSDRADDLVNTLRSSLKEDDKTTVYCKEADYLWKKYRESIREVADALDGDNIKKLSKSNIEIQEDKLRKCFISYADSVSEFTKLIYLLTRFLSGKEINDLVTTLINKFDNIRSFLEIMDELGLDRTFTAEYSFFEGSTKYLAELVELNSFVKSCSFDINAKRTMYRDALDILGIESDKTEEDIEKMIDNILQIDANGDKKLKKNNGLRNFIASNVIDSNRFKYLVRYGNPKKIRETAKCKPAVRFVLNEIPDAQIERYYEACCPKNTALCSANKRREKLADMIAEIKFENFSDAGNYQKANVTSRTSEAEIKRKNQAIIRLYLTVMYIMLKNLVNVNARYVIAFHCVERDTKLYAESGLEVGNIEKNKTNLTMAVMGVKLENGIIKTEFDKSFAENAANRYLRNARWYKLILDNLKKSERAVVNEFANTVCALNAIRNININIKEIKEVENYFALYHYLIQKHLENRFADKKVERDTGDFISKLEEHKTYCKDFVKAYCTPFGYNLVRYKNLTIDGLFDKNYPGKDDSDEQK
Kind of data set: crRNA (strand 1, pre-loaded); Mg2+; 40 mM Tris-HCl pH 7.5, 150 mM NaCl, 6 mM MgCl2, 1 mM DTT, 0.1% Tween-20, 0.2 mg/ml BSA; 25 C; 10 min per concentration, then washed. Conditions: tags: His6-TwinStrep-SUMO cleaved; N-terminal SNAP kept (SNAP-Surface 488); label: 3' end held by stalled T7 RNA polymerase.
As usually defined, the Kd is the free concentration of one partner at which half of the binding sites on the other are occupied at equilibrium, for simple one-to-one binding. Low readings indicate higher affinity, high ones lower affinity. As for B1, the dissociation constant Kd was 11.1 ± 0.6 nM. The molecule B2 displayed a dissociation constant Kd of 16.4 ± 0.8 nM. Regarding B3, the Kd came to 52 ± 16 nM.

Turning to B4, the dissociation constant Kd turned out to be 71 ± 24 nM. The figure for B5 is 7.7 ± 0.4 nM; for B6 it is 24.3 ± 1.9 nM; for B7 it is 15.6 ± 1.3 nM. Under B8 stands 5.15 ± 0.3 nM. Under B9 stands 56 ± 7 nM.

In the case of B10, binding was put at a Kd of 12.5 ± 1 nM.

The molecule B11 yielded a Kd of 26 ± 9 nM.

With B12, binding was put at a Kd of 55 ± 22 nM.

For the molecule B13, the affinity, expressed as Kd, was 86 ± 21 nM. For B14, the affinity, expressed as Kd, was 73 ± 25 nM. The figure for B15 is 40 ± 6 nM.

B16: the affinity, expressed as Kd, was 51 ± 8 nM. The figure for B17 is 13.3 ± 0.6 nM. Under B18 stands 17.1 ± 0.9 nM; under B19, 29.5 ± 2.9 nM; under B20, 45 ± 13 nM. The figure for B21 is 43 ± 6 nM; for B22 it is 46 ± 4 nM. Take B23: the Kd amounted to 16.6 ± 0.6 nM. This Kd lies about 2.8-fold lower than the previous one. Under B24 stands 56 ± 6 nM. The molecule B25 displayed a Kd of 83 ± 16 nM. The Kd values of the last two molecules are within 1.5-fold of each other.

Consider B26, for which the dissociation constant (Kd) was 10.4 ± 1.1 nM. The molecule B27 showed a Kd of 11 ± 0.9 nM. For B28, the Kd was around 80 nM. Under B29 stands 89 ± 33 nM. Consider B30, for which the equilibrium dissociation constant (Kd) came to 31 ± 3 nM.

The molecule B31 gave a Kd of 18.5 ± 1.3 nM.

Molecule B32 gave a Kd of 18.8 ± 1.4 nM. The figure for B33 is 22.5 ± 2 nM.

These data come from article PMC10786891, “Massively parallel profiling of RNA-targeting CRISPR-Cas13d”.
